Earlier results in article PMC11431639.

Key:
INF2 DAD (Homo sapiens) = INF2 DAD (Homo sapiens) (UniProt Q27J81)
mDia1 DAD (Mus musculus) = mDia1 DAD (Mus musculus) (UniProt O08808)
Sequence of mDia1 DAD (Mus musculus) (O08808 1174-1208): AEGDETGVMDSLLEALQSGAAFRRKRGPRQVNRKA

Sequence of mDia1 DID (O08808 129-369): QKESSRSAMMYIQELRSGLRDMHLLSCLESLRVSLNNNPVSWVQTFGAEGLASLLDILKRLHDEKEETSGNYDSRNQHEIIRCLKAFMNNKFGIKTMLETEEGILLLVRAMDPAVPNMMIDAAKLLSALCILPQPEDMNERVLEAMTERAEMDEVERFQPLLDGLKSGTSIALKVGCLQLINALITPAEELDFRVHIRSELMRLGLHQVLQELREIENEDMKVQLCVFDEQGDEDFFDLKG
Sequence of INF2 DID (Q27J81 32-261): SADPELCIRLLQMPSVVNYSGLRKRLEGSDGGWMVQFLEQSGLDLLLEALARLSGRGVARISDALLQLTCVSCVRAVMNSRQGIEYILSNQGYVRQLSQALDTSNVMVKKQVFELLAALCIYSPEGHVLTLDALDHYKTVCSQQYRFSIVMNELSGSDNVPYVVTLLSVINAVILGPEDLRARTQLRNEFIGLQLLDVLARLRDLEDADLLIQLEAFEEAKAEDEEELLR
Sequence of INF2 DAD (Homo sapiens) (Q27J81 971-1000): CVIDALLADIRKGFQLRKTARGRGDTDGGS

| Substance | Kd (INF2 DAD (Homo sapiens)) | Kd (mDia1 DAD (Mus musculus)) |
| --- | --- | --- |
| INF2 DID (from UniProt Q27J81) | 1.1 µM |  |
| mDia1 DID (from UniProt O08808) |  | 0.28 µM |
